According to patent publication US20160200799A1:

Experiments:
Assay in all cases: cell-based or functional assay
[1] = target: Influenza virus A/Panama/2007/1999 (H3N2) (Influenza A virus A/Panama/2007/1999 (H3N2))
[2] = target: Influenza virus A/Brisbane/59/2007 (H1N1) (Influenza A virus A/Brisbane/59/2007 (H1N1))
[3] = target: Influenza virus A/Suita/1/2009pdm (H1N1 2009 pandemic) (Influenza A virus A/Suita/1/2009pdm (H1N1pdm))
[4] = target: Influenza virus A/California/7/2009pdm (H1N1pdm) (Influenza A virus A/California/7/2009pdm (H1N1pdm))
[5] = target: Influenza virus A/Indonesia/5/2005/PR8-IBCDC-RG2 (H5N1) (Influenza A virus A/Indonesia/5/2005/PR8-IBCDC-RG2 (H5N1))

Binder	Neutralizing activity (%) at 100 µg/ml [1] [%]	Neutralizing activity (%) at 250 µg/ml [1] [%]	HI activity [2] [µg/mL]	Neutralizing activity (%) at 100 µg/ml [2] [%]	Neutralizing activity (%) at 250 µg/ml [2] [%]	Neutralizing activity (%) at 100 µg/ml [3] [%]	Neutralizing activity (%) at 250 µg/ml [3] [%]	HI activity [4] [µg/mL]	Neutralizing activity (%) at 100 µg/ml [5] [%]	Neutralizing activity (%) at 250 µg/ml [5] [%]
Group 44 representative clone F081-008, Fab-PP-type antibody (Fab, V domains shown) VH: QVQLVQSGAEVKKPGSSVKVSCKASGGTFSSFSTYTISWVRQAPGQGLEWMGRSIPLLGITNYAQKFQGRVTITADISTSTAYMELSSLRSEDTAVYYCARYQSSDYYNSEYFQHWGQGTLVTVSS VL: EIVLTQSPGTLSLSLGERVTLSCRASQNVGTNYLAWYQQKPGQAPRLLIYGASSRATGVPDRFSGSGSGTDFTLTISRLAPEDFAVYYCQQYSSSPLTFGGGTKLEIK	3.4	15.8	> 160	100	100	95.3	97.7	> 160	48.8	56.5
Group 57 representative clone F083-103, Fab-PP-type antibody (Fab, V domains shown) VH: QVQLQQSGADVKKAGSSVKVSCKASGRTFGNYAISWVRQAPGQGLEWMGGITPIFGAANYAQKFQGRVTISADLSTRMVYMDLSSLRSDDTAFYYCAGHPTYHYGSAMDYWGQGTLVTVSS VL: QSVLTQPPSVSAAPGQKVTITCSGSSSNIGNNYVSWYQQLPGTAPKLLISEGSNRPSGIPDRFSGSKSGTSATLGITGLQTGDEATYYCATWDDSLSVVLFGGGTRLTVLS	11	13.7	> 160	84.2	92.1	60.2	83.8	> 160	30	61.2
Group 59 representative clone F083-351, Fab-PP-type antibody (Fab, V domains shown) VH: QVQLVQSGADVKKAGSSVKVSCKASGRTFGNYAISWVRQAPGQGLEWMGGITPIFGAANYAQKFQGRVTISADLSTRMVYMDLSSLRSDDTAFYYCAGHPMYHYGSAMDYWGQGTLVTVSS VL: QSVLTQPPSASGTPGQRVSISCFGSRSNVGSSSVNWYQQLPGRAPKLLIQRNDQRPSGVPDRFSGSKSGTSASLAISGLQSDDESTYYCAAWDDSVKSVVFGGGTQLTVLG	-6.8	-6.6	> 160	100	100	88.5	85.6	> 160	-2.7	5.4
Group 80 representative clone F083-373, Fab-PP-type antibody (Fab, V domains shown) VH: QVQLVQSGADVKKPGSSVRVSCKASGRTFGNYAISWVRQAPGQGLEWMGGITPIFGAANYAQKFQGRVTISADLSTTMVYMDLSSLRSDDTAFYYCAGHPTYYYGSPMDYWGQGTLVTVSS VL: EIVLTQSPSSLSASVGDRVTITCRASQSIATYLNWYQQKPGKAPNLLIYAASNLQSGVPSRFSGSGSGTDFTLTISSLQPEDFATYVCLQSYSATLTFGGGTKVEIK	-6.9	-21.2	> 160	70.4	74.3	1.9	7.7	> 160	-3.3	15.4
Group 51 representative clone F083-302, Fab-PP-type antibody (Fab, V domains shown) VH: QVQLVQSGAEVKKPGSSVKVSCEASGATFSSNAFSWVRQAPGQGPEWMGGIITMFRKAEYAQKFQGRVTITAGELGSTAYMEVRSLTFEDTAVYYCARHSGYHLIGYFDSWGQGTLVTVSS VL: QSVLTQPPSVSAAPGQKVTISCSGTTSNIGNNYVSWYQQLPGAAPKLLIYDNNKRPSGIPDRFSGSKSDTSATLGITGLQTGDEADYYCGTWVSSLSVWVFGGGTKLTVLG	3.4	-11	> 160	98	98	100	100	> 160	72.9	85.9
Group 43 representative clone F081-007, Fab-PP-type antibody (Fab, V domains shown) VH: QVQLQQSGAEVKKPGSSVKVSCKASGGIFRKNAISWVRQAPGQGLEWMGGISAIFGTANYAQKFQGRVTITADESSNTVYMDLSRLRSEDTAIYYCASHPTYHFDKSGYRFDSWGQGTLVTVSS VL: QSVLTQPPSVSAAPGQKVTISCSGSSSNIGNNYVSWYQQLPGTAPKLLIYDNNKRPSGIPDRFSGSKSGTSATLGITGLQTGDEADYYCGTWDSSLSAGVFGGGTKLTVLG	11.6	13.7	> 160	100	100	100	100	> 160	97.6	98.8
Group 38 representative clone F082-338, Fab-PP-type antibody (Fab, V domains shown) VH: QVQLQESGAEVKKPGSSVKVSCKASGGPFRSHAISWVRQAAGQGLEWMGGITAVFGTANYAQKFQGRVTITADESTNIVSMELSSLRSEDTAIYYCARSLGYHTQYNGMDVWGQGTTVTVSS VL: DVVMTQSPSSVSASVGDRVTITCRASQGISSWLAWYQQKPGKAPKLLIYAASSLQSGVPSRFSGSGSGTDFTLTISSLQPEDFATYYCQQANSFPITFGQGTRLEIK	-2.7	-0.7	> 160	100	100	100	97.7	> 160	67.1	85.3
Group 63 representative clone F083-336, Fab-PP-type antibody (Fab, V domains shown) VH: QVQLQQSGAEVKQPGSSVKVSCKASGGIFRSNAISWVRQAPGQGLEWMGGIVALFGTANYAQKFQGRVTITADESTSTVYMELSSLRSEDTARYYCARNSGYHISGFYLDYWGQGTLVTVSS VL: EIVLTQSPSSLSASVGDRVTITCRASQGISNYLAWYQQRPGKVPKLLIYTASTLLSGVPSRFSGGGSGTDYTLTISSLQPEDVATYYCQEYKSVPLTFGPGTKVEIK	-11	-8.9	> 160	100	100	100	100	> 160	98.8	100
Group 62 representative clone F083-349, Fab-PP-type antibody (Fab, V domains shown) VH: QVQLVQSGAEVRKPGSSVKVSCKASGVIFIKFAISWVRQAPGQGLEWMGGIIPMFGTTNYAQKFQGRVTITADGSTNTVYMELSSLTSEDTAVYYCAKEEGYYYGSGPLDSWGQGTLVTVSS VL: DIVMTQSPDFLSVSLGERVTINCKSSQTVLNRSNNKNYLAWYQKKPGQPPRLLLYWSSTRESGVPDRFSGSGSETDFALTITNLQAEDLAVYFCQQFYDMPVTFGGGTKLEIK	13.7	-8.9	> 160	92.1	92.1	97.1	91.3	> 160	40.2	83.9
Group 58 representative clone F083-307, Fab-PP-type antibody (Fab, V domains shown) VH: QVQLQQSGADVKKPGSSVKVSCKASGGTFGNYAISWVRQAPGQGLEWMGGITPIFGPANYAQRFQGRVTISADISTRTAYMELSSLRSEDTAIYYCARHPTYYFGSAMEYWGQGTLVTVSS VL: SYELTQPPSVSVAPGQTATITCGGDRIGTGPVHWYQQRPGRAPVLIIYGSTHRPSGIPERFSGSKSVNTATLSISGVGVGDEADYYCQVWDTSTAQPIVFGGGTKLTVLS	-6.8	11.6	> 160	100	100	76.6	54.8	> 160	28.8	31.8
Group 64 representative clone F083-301, Fab-PP-type antibody (Fab, V domains shown) VH: QVQLVQSGAEVKKPGSSVKVSCKASGGIFNSNAISWVRQAPGQGLEWMGGIIGIFGTANYAQKFQGRVTIAADQSTNTVFMELSSLTSEDTAVYFCARSRGYSFGYGTDYFDYWGQGTLVTVSS VL: DIVMTQSPSTLSASVGDRVTITCRASQSISSWLAWYQQAPGKAPKLLIYEASKLQSGVPSRFSATGSGTEFTLTIASLQPEDFAIYYCQHYEAYPFSFGPGTKLDVK	-2.7	7.5	> 160	86.2	92.1	83.6	81.3	> 160	40.6	47.1
Group 65 representative clone F083-366, Fab-PP-type antibody (Fab, V domains shown) VH: QVQLVQSGSEVKKPGSSVKVSCKASRGIFSSYAISWVRQAPGQGLEWMGAVIPMFGTLKYAENFQGRITISADKSMSAAYMELSSLRSEDTAVYYCARNYYGSGTYFNDAFDIWGQGTMVTVSS VL: QSVLTQPPSGSGAPGQRVTISCTGGNSNIGAGYDVNGYQQLPGKAPKLLIYGNNNRPSGVPDRFSGSKSGTSASLAITGLQVEDEAHYYCQSYDNGLSGSVFGGGTQLTVLG	-13	-6.8	> 160	96.1	98	13.5	19.2	> 160	-0.8	-3.9
